Source: US20250361297A1, “ANTI- SIGLEC-15 BINDING MOLECULES AND METHODS OF USE” (ADAPTAM THERAPEUTICS, S.L., priority 2024, published 2025)

What was measured:
human Siglec-15 [1] = target: T1, human Siglec-15 (Homo sapiens, UniProt Q6ZMC9); assay: Titration of full-length IgG1 antibodies on human Siglec-15 (ELISA / flow cytometry on MOLM-13 Siglec-15 cells); type: binding; settings: full-length human IgG1, titrated from 10 μg/ml
T1 construct: expressed in transfected cells
T1 sequence (Q6ZMC9 20-328): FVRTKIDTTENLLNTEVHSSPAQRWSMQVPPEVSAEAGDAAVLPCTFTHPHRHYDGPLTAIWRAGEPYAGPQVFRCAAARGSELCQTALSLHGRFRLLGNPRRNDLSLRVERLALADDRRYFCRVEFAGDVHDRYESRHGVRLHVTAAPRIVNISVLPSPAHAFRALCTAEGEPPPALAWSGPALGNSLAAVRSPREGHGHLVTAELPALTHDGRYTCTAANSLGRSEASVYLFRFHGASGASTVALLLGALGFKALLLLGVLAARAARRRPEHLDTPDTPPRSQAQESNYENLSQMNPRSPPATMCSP
Experimental: The binding efficacy of the converted full-length IgG1 anti-Siglec-15 antibodies was then evaluated using both ELISA and flow cytometry. By immobilizing the antigen and titrating the antibodies starting at a concentration of 10 μg/ml, binding kinetics were determined via ELISA, using an anti-human IgG Fab-specific secondary antibody for detection. Palivizumab served as the negative control in these assays (FIG. 8A). Complementary to the ELISA, flow cytometry assays provided insight into the binding behavior of the antibodies on the cell surface. […] From these assays, EC50 values were calculated, offering a quantitative measure of the antibodies' affinity towards Siglec-15, and leading to the selection of 7 unique hits (Table 10).
For the ELISA, antigens were immobilized on high-binding plates, and the full-length IgG1 anti-Siglec-15 antibodies were titrated beginning at a concentration of 10 μg/ml. […] Optical densities were measured to generate binding curves from which EC50 values were derived. […] Flow cytometric analysis was conducted, and fluorescence intensity was used to calculate EC50 values, providing a quantitative assessment of the antibodies' cell surface binding efficacy. […] Antibodies were titrated starting at a concentration of 10 μg/ml and detected with an anti-human Fc-specific secondary antibody to detect bound primary antibodies. […]

mouse Siglec-15 = target: T2, mouse Siglec-15 (Mus musculus, UniProt A7E1W8); assay: Titration on HEK293T cells expressing mouse Siglec-15 (flow cytometry); type: binding; settings: titrated from 10 μg/ml
T2 construct: HEK293T cells were genetically engineered to express full-length mouse Siglec-15; expressed in transfected cells; host or cells: HEK293T
T2 sequence (A7E1W8 24-342): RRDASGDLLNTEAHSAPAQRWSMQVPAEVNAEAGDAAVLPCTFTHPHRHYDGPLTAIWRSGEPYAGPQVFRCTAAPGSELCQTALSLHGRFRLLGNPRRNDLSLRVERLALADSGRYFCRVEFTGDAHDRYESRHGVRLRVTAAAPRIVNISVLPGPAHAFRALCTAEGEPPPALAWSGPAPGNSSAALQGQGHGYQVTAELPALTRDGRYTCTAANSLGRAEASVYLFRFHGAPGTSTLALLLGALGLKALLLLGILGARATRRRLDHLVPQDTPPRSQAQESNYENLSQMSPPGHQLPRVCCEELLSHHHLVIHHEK
Experimental: Cross-species reactivity and domain-specific binding of the full-length anti-Siglec-15 antibody candidates were evaluated. The antibodies were titrated against HEK293T cells expressing mouse Siglec-15 or HEK293T cells expressing a truncated human Siglec-15 consisting solely of domain 2 (FIG. 9). […] However, the binding to mouse Siglec-15 was evident for all tested antibodies, with EC50 values calculated to rank the affinity of the antibodies.
For the ELISA, antigens were immobilized on high-binding plates, and the full-length IgG1 anti-Siglec-15 antibodies were titrated beginning at a concentration of 10 μg/ml. After washing, an anti-human IgG Fab-specific HRP-conjugated secondary antibody was applied for detection. […] Optical densities were measured to generate binding curves from which EC50 values were derived. […] Flow cytometric analysis was conducted, and fluorescence intensity was used to calculate EC50 values, providing a quantitative assessment of the antibodies' cell surface binding efficacy. […] Antibodies were titrated starting at a concentration of 10 μg/ml and detected with an anti-human Fc-specific secondary antibody to detect bound primary antibodies. The half-maximal effective concentration (EC50) was calculated for each antibody to determine its binding affinity to mouse Siglec-15. Results were analyzed and ranked based on the EC50 values.

human Siglec-15 [2] = target: T1, human Siglec-15; assay: Competitive flow cytometry assay with benchmark antibodies; type: binding
Experimental: Epitope mapping assay by Flow cytometry: Competition with benchmark mouse IgG antibodies: 50,000 cells/well of THP-1 S15 OE were added to a round bottom 96 well plate, and centrifuged at 450×G for 5 minutes, and the supernatant was discarded. Human anti-siglec-15 IgG antibodies (starting at 198 nM, 3-fold serial dilution in staining buffer) were added to 100 μl of staining buffer and cells were resuspended with it and incubated for 40 minutes on ice. 100 μl of staining buffer were added to wells, centrifuged at 450× G for 5 minutes and the supernatants discarded. Benchmark mouse IgG antibodies were diluted at 33.3 nM and cells resuspended in 100 μl of the mix and incubated for 40 minutes on ice. Then, 100 μl of staining buffer were added to wells, centrifuged at 450×G for 5 minutes and the supernatants discarded. The secondary antibody anti-mouse IgG-Alexa647 was prepared at 1:200 dilution in 100 μl of staining buffer and added to each well, and cells were incubated for 40 minutes on ice. Cells were washed with 100 μl of staining buffer and centrifuged at 450×G for 5 minutes to discard the supernatant. Cells were resuspended in 150 μl of staining buffer and acquired in a flow cytometer.

Siglec-15 positive cells = assay: Internalization assay (Zenon pHrodo iFL Green); type: cell-based; settings: kinetics over 1, 2, 4, 16, and 24 hours
Experimental: Internalization assay (Zhenon pHrodo): Sufficient volumes of 4× working solution of anti-Siglec-15 antibodies (10 nM) were prepared in cell culture medium for a total of 25 μL for each well of a 96-well plate. A working solution of Zenon™ pHrodo™ iFL IgG Labeling Reagent was prepared at 30 nM and 25 μL were added to each well. The mix was incubated for 5 minutes at room temperature to allow the labeling complexes to form. 5 mL of suspension cells at 2×10^6 cells/mL in cell culture medium were prepared and 50 μL of cells were added to each well of the 96-well plate containing the mix of anti-Siglec-15 antibody and the Zenon™ labeling reagent. Cells were incubated with the labeling complex for different timepoints (1-24 hours) under standard cell culture conditions. Fluorescence was analyzed by flow cytometry.

B1: ZLA-1243-E01: fully human anti-Siglec-15 IgG1, silenced Fc, phage display; VH SEQ ID NO: 34, VL SEQ ID NO: 35 (antibody, V domains shown)
VH: QVQLVQSGGGLVQPGRSLRLSCAASGFTFDDYAMHWVRQAPGKGLEWVSGISWNSGSIGYADSVKGRFTISRDNAKNSLYLQMNSLRAEDTALYYCAKGLWPSYDLDAFDIWGQGTMVTVSS
VL: QSALTQPASVSGSPGQSITLSCTGTSSDVGAYNFVSWYQQHPGTAPKLMIYEVSNRPSGVSDRFSGSKSGNTASLTISGLQAEDEADYYCSSYTSTIPPFVFGTGTKVTVL
modifications: IgG1 silenced Fc; ZLA-1243-E01 VH; ZLA-1243-E01 VL
In the case of B1, the “EC50 (ng/mL) hS15” value (human Siglec-15 [1]) is reported as 174.3 ng/mL, the “EC50 (ng/mL) mS15” value (mouse Siglec-15) is reported as 84.88 ng/mL and the “inhibition of binding of A2A5C7E8 (benchmark 2)” value (human Siglec-15 [2]; across all concentrations (FIG. 18D)) is reported as “outperformed 5G12”. The “inhibition of binding of 5G12 (benchmark 1)” value (human Siglec-15 [2]; at concentrations above 10 nM (FIG. 18C)) was “outperformed A2A5C7E8” and the “internalization, fold increase over isotype control” value (Siglec-15 positive cells) was “approximately 6 fold”.
